Consider four molecules from US12497460B2, “Anti-MSR1 antibodies and methods of use thereof” (REGENERON PHARMACEUTICALS, INC., priority 2018, dated 2025).

Assay [1] has as its target T1, PMA-treated THP-1 cells (endogenously expressed human MSR1) (Homo sapiens, UniProt P21757).
T1 construct: endogenous in cells; host or cells: THP-1 cells differentiated with PMA
T1 sequence (P21757 1-451): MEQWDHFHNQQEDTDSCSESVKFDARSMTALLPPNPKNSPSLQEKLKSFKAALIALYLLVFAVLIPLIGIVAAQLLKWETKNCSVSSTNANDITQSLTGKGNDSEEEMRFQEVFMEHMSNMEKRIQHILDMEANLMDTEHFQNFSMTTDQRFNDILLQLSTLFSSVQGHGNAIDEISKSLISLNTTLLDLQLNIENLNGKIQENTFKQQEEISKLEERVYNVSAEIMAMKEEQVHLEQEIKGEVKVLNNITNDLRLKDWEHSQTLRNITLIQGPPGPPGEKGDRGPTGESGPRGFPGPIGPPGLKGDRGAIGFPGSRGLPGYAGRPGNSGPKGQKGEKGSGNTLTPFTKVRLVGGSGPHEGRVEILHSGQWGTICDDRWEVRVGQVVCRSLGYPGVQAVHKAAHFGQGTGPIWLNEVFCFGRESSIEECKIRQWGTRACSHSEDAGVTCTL
As to the kind of experiment: Electrochemiluminescence antibody binding assay on MSR1-expressing cells. It is filed as cell-based.

In the next assay the test system is parental HEK293 cells. Description: Electrochemiluminescence antibody binding assay, non-specific binding control cells. Type of assay: cell-based, human.
Assay [2] deals with T2, MSR1 on differentiated THP-1 cells (Homo sapiens, UniProt P21757).
T2 construct: endogenous in cells; host or cells: THP-1 cells differentiated with PMA
T2 sequence (P21757 1-451): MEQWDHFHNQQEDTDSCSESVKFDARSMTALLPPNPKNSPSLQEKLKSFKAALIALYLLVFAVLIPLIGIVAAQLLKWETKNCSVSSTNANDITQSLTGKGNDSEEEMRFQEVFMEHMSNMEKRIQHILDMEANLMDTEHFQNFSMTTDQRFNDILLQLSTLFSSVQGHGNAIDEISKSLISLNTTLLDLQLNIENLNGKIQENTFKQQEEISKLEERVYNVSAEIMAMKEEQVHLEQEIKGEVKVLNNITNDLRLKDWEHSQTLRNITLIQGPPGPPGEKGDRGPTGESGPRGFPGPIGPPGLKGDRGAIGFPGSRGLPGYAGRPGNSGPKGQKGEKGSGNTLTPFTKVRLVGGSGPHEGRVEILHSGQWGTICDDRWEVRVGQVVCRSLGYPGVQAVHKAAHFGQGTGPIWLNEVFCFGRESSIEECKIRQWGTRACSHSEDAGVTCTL
Description: Binding and internalization of cell-surface expressed MSR1 in differentiated THP-1 cells. Type of assay: cell-based. The note with it: 10 μg/mL antibody; for Total Binding at 37° C. / Total Internalized RFU: 37° C. The protocol:
Exemplary anti-MSR1 antibodies were assessed for their ability to bind and internalize MSR1 on MSR1-expressing cells.
The THP-1 cells were allowed to differentiate for 4 days at 37° C. in 5% CO2. […] The remaining two plates were incubated at 37° C. for 1 hour followed by fixation and staining for 20 minutes using a solution of 4% PFA+5 μM DRAQ5 diluted in PBS (internalization plates). After fixation, all plates were washed once with PBS. […] The remaining plates were incubated with PBS only. Confocal images were acquired on the Opera Phenix (Perkin Elmer) at 40× magnification. […] The total binding at 4° C. (RFU values of 4° C. unquenched wells), total binding at 37° C. (RFU values of 37° C. unquenched wells), the total internalized RFU, and % Internalization were determined for each antibody as shown in Table 14.
For all calculations, background fluorescence from unstained wells was subtracted from every well. Total internalized RFU was calculated as follows: Total RFU of 37° C. unquenched samples−Surface RFU at 37° C. Surface RFU is defined as unquenched RFU at 37° C.−quenched RFU at 37° C.)/QE. QE (quenching efficiency) is defined as: 1−(Total RFU of 4° C. quenched sample/Total RFU of 4° C. unquenched sample). The % Internalization was determined from the following formula: (Total internalized RFU at 37° C./Total RFU at 37° C.)*100.

Assay [3] deals with T3, His9-hMSR1 (human MSR1 extracellular domain) (Homo sapiens, UniProt P21757).
T3 construct: human MSR1 extracellular domain expressed with a N-terminal nonahistidine tag; His9 (nonahistidine) (N); purchased R&D Systems 2708-MS
T3 sequence (P21757 77-451 limits assumed): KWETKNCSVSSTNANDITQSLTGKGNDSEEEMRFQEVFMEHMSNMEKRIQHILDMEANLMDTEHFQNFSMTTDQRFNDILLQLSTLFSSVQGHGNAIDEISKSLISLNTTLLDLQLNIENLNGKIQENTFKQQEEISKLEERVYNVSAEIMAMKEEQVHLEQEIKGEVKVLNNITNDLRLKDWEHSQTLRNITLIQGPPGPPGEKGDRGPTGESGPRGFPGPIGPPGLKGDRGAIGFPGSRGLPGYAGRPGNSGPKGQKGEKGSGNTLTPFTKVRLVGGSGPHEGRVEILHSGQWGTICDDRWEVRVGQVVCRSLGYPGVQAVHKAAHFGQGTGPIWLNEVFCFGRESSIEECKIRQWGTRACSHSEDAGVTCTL
As to the kind of experiment: Biacore surface plasmon resonance binding kinetics of anti-MSR1 mAbs, antibody-capture format. Conditions: analyte His9-hMSR1, NB = no binding observed; for kd: * = no dissociation observed, kd manually fixed at 1.00E−05; for ka: antibody-capture format; for Kd: calculated from kinetic rates; for t½: dissociative half-life. As to the method: Binding affinities and kinetic constants of human anti-MSR1 antibodies for different MSR1 reagents were determined by real-time surface plasmon resonance (Biacore 4000). All binding studies were performed in 10 mM HEPES, 150 mM NaCl, 3 mM EDTA, and 0.05% v/v Surfactant Tween-20, pH 7.4 (HBS-ET) running buffer at 25° C. and 37° C.
The association rate (ka) and dissociation rate (kd) were determined by fitting the real-time binding sensorgrams to a 1:1 binding model with mass transport limitation using Scrubber 2.0c curve-fitting software. Binding dissociation equilibrium constant (KD) and dissociative half-life (t½) were calculated from the kinetic rates as: […]

For assay [4], the target named is T4, MSR1-mediated Dil-AcLDL uptake in HEK293.Myc.hMSR1 cells (Homo sapiens, UniProt P21757).
T4 construct: expressed in transfected cells; host or cells: HEK293 (lentiviral transduction, hygromycin selection)
T4 sequence (P21757 1-451): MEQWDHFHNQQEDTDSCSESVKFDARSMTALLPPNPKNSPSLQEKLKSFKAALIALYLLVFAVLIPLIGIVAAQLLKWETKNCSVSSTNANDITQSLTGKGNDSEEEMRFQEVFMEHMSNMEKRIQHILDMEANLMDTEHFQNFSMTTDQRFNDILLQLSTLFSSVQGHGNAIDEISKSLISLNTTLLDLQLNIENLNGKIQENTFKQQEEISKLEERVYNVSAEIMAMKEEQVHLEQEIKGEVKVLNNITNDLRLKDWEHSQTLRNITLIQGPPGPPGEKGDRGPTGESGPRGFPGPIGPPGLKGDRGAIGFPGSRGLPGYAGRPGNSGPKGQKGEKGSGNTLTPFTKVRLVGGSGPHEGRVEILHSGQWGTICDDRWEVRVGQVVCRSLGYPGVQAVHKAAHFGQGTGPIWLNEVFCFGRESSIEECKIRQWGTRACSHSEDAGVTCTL
Description: Ligand uptake assay, Dil-AcLDL. The note with it: 10 μg/mL Dil-AcLDL. It is filed as cell-based. The protocol:
A bioassay was generated to assess the ability of the exemplary anti-MSR1 antibodies to regulate the uptake of certain MSR1 ligands.
Generation of MSR1-expressing cell lines for assay. […] The resulting cell line, referred to here as “HEK293.Myc.hMSR1”, was selected and maintained in DMEM containing 10% FIBS, NEAA, penicillin/streptomycin, L-glutamine, and 100 μg/mL hygromycin.
Ligand uptake assay. […] After 30 minutes, either oxidized or acetylated low-density lipoprotein (LDL) labeled with 1,1′dioctadecyl-3,3,3′,3′-tetramethylindocarbocyanine perchlorate (referred to as “Dil-OxLDL” or “Dil-AcLDL,” respectively) was added to the cells at a constant concentration of 10 μg/mL. […] Results were analyzed using nonlinear regression (4-parameter logistics) with the Prism 7 program to obtain EC50 and IC50 values. The percentage of inhibition was calculated with the Relative Fluorescent Unit (RFU) values by using the following equation: […]
In the equation, “RFUBaseline” is the fluorescence value from the cells treated with 10 μg/mL ligand without antibodies, “RFUInhibition” is the minimum fluorescence value with for a particular antibody with 10 μg/mL ligand, and “RFUBackground” is the fluorescence value from cells without any ligand or antibodies.

B1: H1H27731P-N297Q: one of "Twelve anti-MSR1 antibodies"; "made with an N297Q single point mutation in human Fcγ portion" (antibody, V domains shown)
VH: QLQLQESGPGLVKPSETLSLTCTVSGGSISRISYYWGWIRQPPGKGLEWIGSIYDSGSTYYNPSLKSRVTISIDTSKNQFSLKLSSVTAADTAVYYCVRYSSSSAFAFDYWGQGTLVTVSS
VL: DIQMTQSPSSVSASVGDRVTITCRASQGISSWLAWYQQKPGKAPKLLIYAASSLQSGVPSRFSGSGSGTDFTLTISSLQPEDFATYYCQQANSFPFTFGPGTKVDIKR
As to B1, in assay [1], the “Ratio of 11 nM Antibody Binding Signal (RLU) to isotype control, PMA-treated THP-1” value (shortened to “Ratio … PMA-treated THP-1”) is reported as 38. Also, the “Ratio of 11 nM Antibody Binding Signal (RLU) to isotype control, HEK293” value (shortened to “Ratio of 11 nM Antibody Binding Signal … HEK293”) in the assay on parental HEK293 cells was 7. Moreover, in assay [2], the “% Internalization” value came to 54.2%, the “Total Binding at 4° C.” value worked out at 1215319, the “Total Binding at 37° C.” value came out at 1802404 and the “Total Internalized RFU” value is listed as 977543 RFU. In assay [3] (25° C.), this molecule yielded a kd of 2.24e-05 s⁻¹ and a ka of 129000 M⁻¹ s⁻¹. In assay [3] (37° C.), this molecule showed a kd of 0.000132 s⁻¹ and a ka of 286000 M⁻¹ s⁻¹.

B2: H1H27754P-N297Q: one of "Twelve anti-MSR1 antibodies"; "made with an N297Q single point mutation in human Fcγ portion" (antibody, V domains shown)
VH: EVQLVESGGGLVQPGGSLRLSCAASGFTFRTYAMTWVRQAPGKGLDWVSAITGDGGNTYYADSVKGRFTISRDNSKNTLYLQMNSLRAEDTAIYYCAKDQRFSFALYYFDYWGQGTLVTVSS
VL: DIQMTQSPSSVSASVGDRVTITCRASQGISSWLAWYQQKPGNAPKLLIYAAFSLQSGVPSRFSGSGSGTDFTLTISSLQPEDFATYYCQQANNFPWTFGQGTKVEIKR
As to B2, the “Ratio … PMA-treated THP-1” value in assay [1] came out at 66. The “Ratio of 11 nM Antibody Binding Signal … HEK293” value in the assay with parental HEK293 cells is 18. Also, in assay [2], the “% Internalization” value stood at 90.0%, the “Total Binding at 4° C.” value amounted to 3077308, the “Total Binding at 37° C.” value is 7161570 and the “Total Internalized RFU” value came out at 6446236 RFU. For the same molecule, in assay [3] (25° C.), the kd is 1.00E−05* s^−1 and the ka came out at 290000 M⁻¹ s⁻¹. In addition, in assay [3] (37° C.), the kd is 2.53e-05 s⁻¹ and the ka was found to be 663000 M⁻¹ s⁻¹.

B3: H1H21227N: "anti-MSR1 antibodies ... (21227N, 21231N, 21234N) were produced with the original human Fcγ portion"; "H1H" = human IgG1 Fc (antibody, V domains shown)
VH: QVQLVQSGAEVKKPGASVKVSCKVSGYTLTELSIHWVRQVPGKGLEWMGGFDPEEGETIFAQEFRDRVTLTEDTSPDTAYMELSSLKSEDAAVYYCTTPRYCNNGICYDYWGQGTLVTVSS
VL: DIQMTQSPSSLSASVGDRVTITCRASQSISNYLNWYQQKPGKAPKLLIYTASSLQSGVPSRFSGSGSGTDFTLTISSLQTEDFATYYCQQSYSNFPITFGQGTRLEIKR
modifications: human IgG1 Fc
notes: "anti-MSR1 antibodies ; (21227N, 21231N, 21234N) were produced with the original human Fcγ portion"; "H1H" = human IgG1 Fc
Take B3: the “Ratio … PMA-treated THP-1” value in assay [1] was 7. Also, in the assay with parental HEK293 cells, the “Ratio of 11 nM Antibody Binding Signal … HEK293” value was found to be 1. In addition, in assay [3] (25° C.), the kd was found to be 1.44e-05 s⁻¹, the ka amounted to 1.2e+06 M⁻¹ s⁻¹, the Kd is 0.012 nM and the t½ stood at 13.3 h. Besides, in assay [3] (37° C.), the kd stood at 1.85e-05 s⁻¹, the ka stood at 2.56e+06 M⁻¹ s⁻¹, the dissociation constant (Kd) was 0.00724 nM and the t½ stood at 10.4 h. For the same molecule, the IC50 in assay [4] (read-out: Dil-Acetylated LDL IC50) is 2.1 nM. Further, the “Dil-Acetylated LDL % Inhibition” value in assay [4] (maximum inhibition) was 65%.

B4: H1H21227N-N297D: "The 21227N antibody was also produced as a third version with a N297D mutation" (antibody, V domains shown)
VH: QVQLVQSGAEVKKPGASVKVSCKVSGYTLTELSIHWVRQVPGKGLEWMGGFDPEEGETIFAQEFRDRVTLTEDTSPDTAYMELSSLKSEDAAVYYCTTPRYCNNGICYDYWGQGTLVTVSS
VL: DIQMTQSPSSLSASVGDRVTITCRASQSISNYLNWYQQKPGKAPKLLIYTASSLQSGVPSRFSGSGSGTDFTLTISSLQTEDFATYYCQQSYSNFPITFGQGTRLEIKR
On to B4, for which the “Ratio … PMA-treated THP-1” value in assay [1] came to 6. Moreover, the “Ratio of 11 nM Antibody Binding Signal … HEK293” value with parental HEK293 cells stood at 1. Moreover, in assay [3] (25° C.), the kd stood at 3.79e-05 s⁻¹, the ka stood at 1.14e+06 M⁻¹ s⁻¹, the Kd is 0.0333 nM and the t½ is 5.08 h. For the same molecule, in assay [3] (37° C.), the kd is 1.00E−05* s^−1, the ka amounted to 2.73e+06 M⁻¹ s⁻¹, the Kd was 0.00366 nM and the t½ turned out to be 19.25 h.

A word on the Kd: it is a measure of binding affinity in units of concentration. Usually t½ stands for the time needed for the level to fall by half in the phase considered. As usually defined, the IC50 is the point on the concentration scale where inhibition reaches its midpoint.
